Measurements from the supplement of paper PMC7877785.
± gives the uncertainty stated by the source.

Assay: self-splicing fitness, log relative to wild type (ln ratio); higher = more splicing; Tetrahymena group I intron in knt gene, E. coli kanamycin selection, DiMSum; sequences stand for … in CUCUCU…GGAGGGAAAAGUUAUCAGGCAUGCACCUGGUAGCUAGUCUUUAAACCAAUAGAUUGCAUCGGUUUAAAAGGCAAGACCGUCAAAUUGCGGGAAAGGGGUCAACAGCCGUUCAGUACCAAGUCUCAGGGGAAACUUUGAGAUGGCCUUGCAAAGGGUAUGGUAAUAAGCUGACGGACAUGGUCCUAACCACGCAGCCAAGUCCUAAGUCAACAGAUCUUCUGUUGAUAUGGAUGCAGUUCACAGACUAAAUGUCGGUCGGGGAAGAUGUAUUCUUCUCAUAAGAUAUAGUCGGACCUCUCCUUAAUGGGAGCUAGCGGAUGAAGUGAUGCAACACUGGAGCCGCUGGGAACUAAUUUGUAUGCGAAAGUAUAUUGAUUAGUUUUGGAGUACUCGUGGUCG
How it was run: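 A randomised library covering all eight P1ex-region intron nucleotides was built with the intron in the knt kanamycin-resistance gene on pET-22b(+) and held in E. coli BL21(DE3). Cells were grown overnight at 37°C or 30°C on LB agar, with or without 25 μg/mL kanamycin, plus 100 μg/mL carbenicillin, 50 μM IPTG and 0.2% rhamnose, and pooled colonies were amplicon-sequenced on an Illumina HiSeq 2500. DiMSum fitness is the error-weighted combination of wild-type-normalised replicate fold changes, kanamycin versus none.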

Sequence | self-splicing fitness (ln) (30 °C) | self-splicing fitness (ln) (37 °C)
ACGAAGCAAUAUUACGGGGU | -3.47 ± 0.15 | -2.33 ± 0.17
ACGAAGCAAUAUUACGUAAG | -2.37 ± 0.1 | -1.05 ± 0.12
ACGAAGCAAUAUUACGUAAU | -2.57 ± 0.087 | -1.23 ± 0.088
ACGAAGCAAUAUUACGUCAA | -3.35 ± 0.17 | -3.51 ± 0.22
ACGAAGCAAUAUUACGUCAG | -3.43 ± 0.19 | -1.1 ± 0.12
ACGAAGCAAUAUUACGUCUU | -2.32 ± 0.17 | -1.91 ± 0.16
ACGAAGCAAUAUUACGUGCC | -1.6 ± 0.079 | -0.89 ± 0.1
ACGCAGCAAUAUUACGAACG | -0.387 ± 0.076 | -0.234 ± 0.091
ACGCAGCAAUAUUACGAAUG | -2.51 ± 0.086 | -1.2 ± 0.097
ACGCAGCAAUAUUACGACAU | -0.318 ± 0.011 | 0.305 ± 0.032
ACGCAGCAAUAUUACGACUA | -1.15 ± 0.072 | -0.183 ± 0.064
ACGCAGCAAUAUUACGAUGA | -1.1 ± 0.064 | -0.521 ± 0.068
ACGCAGCAAUAUUACGCAAA | -2.51 ± 0.13 | -1.77 ± 0.14
ACGCAGCAAUAUUACGCACG | -1.8 ± 0.12 | -1.31 ± 0.12
ACGCAGCAAUAUUACGCCAU | -2.86 ± 0.17 | -2.05 ± 0.17
ACGCAGCAAUAUUACGCCCU | -0.193 ± 0.12 | 0.187 ± 0.12
ACGCAGCAAUAUUACGCGCU | -2.24 ± 0.17 | -1.31 ± 0.14
ACGCAGCAAUAUUACGCUCU | -0.517 ± 0.067 | 0.303 ± 0.076
ACGCAGCAAUAUUACGCUUA | -0.737 ± 0.089 | -0.286 ± 0.099
ACGCAGCAAUAUUACGGAUA | -3.47 ± 0.18 | -1.7 ± 0.12
ACGCAGCAAUAUUACGGCAG | -1.22 ± 0.093 | -1.08 ± 0.15
ACGCAGCAAUAUUACGGCAU | -0.55 ± 0.059 | 0.0845 ± 0.072
ACGCAGCAAUAUUACGGUCC | -2.36 ± 0.14 | -1.01 ± 0.13
ACGCAGCAAUAUUACGGUGU | -3.81 ± 0.14 | -2.29 ± 0.096
ACGCAGCAAUAUUACGGUUA | -1.13 ± 0.077 | -1.04 ± 0.062

Sequence | self-splicing fitness (ln) (30 °C) | self-splicing fitness (ln) (37 °C)
ACGCAGCAAUAUUACGUAUA | -2.65 ± 0.14 | -2.54 ± 0.13
ACGCAGCAAUAUUACGUUAA | -3.4 ± 0.31 | -2.88 ± 0.24
ACGCAGCAAUAUUACGUUAC | -3.14 ± 0.15 | -3.27 ± 0.23
ACGCAGCAAUAUUACGUUCG | -1.24 ± 0.059 | -0.442 ± 0.068
ACGCAGCAAUAUUACGUUUG | -3.65 ± 0.2 | -2.69 ± 0.2
ACGGAGCAAUAUUACGAACU | -0.565 ± 0.11 | -0.0683 ± 0.16
ACGGAGCAAUAUUACGACAA |  | -1.73 ± 0.45
ACGGAGCAAUAUUACGACAU | -1.947 ± 0.018 | -1.1 ± 0.035
ACGGAGCAAUAUUACGACCG | -2.1 ± 0.17 | -1.78 ± 0.25
ACGGAGCAAUAUUACGAGAU | -3.66 ± 0.21 | 0.0618 ± 0.16
ACGGAGCAAUAUUACGAGGA | -2.89 ± 0.27 | -2.92 ± 0.43
ACGGAGCAAUAUUACGAGGG | -3.45 ± 0.25 | -2.82 ± 0.32
ACGGAGCAAUAUUACGAGGU | -2.12 ± 0.22 | -2.5 ± 0.29
ACGGAGCAAUAUUACGAUGU | -3.19 ± 0.2 | -2.52 ± 0.27
ACGGAGCAAUAUUACGAUUU | -2.33 ± 0.12 | -1.65 ± 0.15
ACGGAGCAAUAUUACGCAGA | -2.52 ± 0.36 | -2.02 ± 0.29
ACGGAGCAAUAUUACGCCAU | -2.63 ± 0.25 | 
ACGGAGCAAUAUUACGCCUC | -2.43 ± 0.43 | -1.82 ± 0.27
ACGGAGCAAUAUUACGCCUG | -3.41 ± 0.2 | -1.52 ± 0.19
ACGGAGCAAUAUUACGCUCU | -3.26 ± 0.32 | -1.22 ± 0.3
ACGGAGCAAUAUUACGCUUG | -1.71 ± 0.11 | -0.212 ± 0.1
ACGGAGCAAUAUUACGGACC |  | -0.877 ± 0.34
ACGGAGCAAUAUUACGGAGG | -4.47 ± 0.46 | -1.69 ± 0.19
ACGGAGCAAUAUUACGGCAU |  | -1.53 ± 0.23
ACGGAGCAAUAUUACGGGGU | -3.65 ± 0.21 | -1.45 ± 0.21

Sequence | self-splicing fitness (ln) (30 °C) | self-splicing fitness (ln) (37 °C)
ACGGAGCAAUAUUACGUACU | -1.69 ± 0.091 | -2.32 ± 0.16
ACGGAGCAAUAUUACGUAGC |  | -1.64 ± 0.21
ACGGAGCAAUAUUACGUCAA | -2.71 ± 0.39 | -2.94 ± 0.36
ACGGAGCAAUAUUACGUCCA | -3.19 ± 0.17 | -0.993 ± 0.15
ACGGAGCAAUAUUACGUGAG | -3.06 ± 0.28 | -1.15 ± 0.19
ACGGAGCAAUAUUACGUUAC |  | -2.56 ± 0.22
ACGGAGCAAUAUUACGUUGU | -3.46 ± 0.14 | -2.07 ± 0.13
ACGUAGCAAUAUUACGAAAG | -3.88 ± 0.25 | -3.59 ± 0.31
ACGUAGCAAUAUUACGACCC | -0.864 ± 0.19 | 0.196 ± 0.22
ACGUAGCAAUAUUACGACCU | -0.0641 ± 0.099 | 0.527 ± 0.11
ACGUAGCAAUAUUACGACGG | -0.92 ± 0.11 | -0.526 ± 0.13
ACGUAGCAAUAUUACGAUGU | -2.37 ± 0.14 | -1.6 ± 0.17
ACGUAGCAAUAUUACGCGAC | -3.16 ± 0.21 | -1.9 ± 0.22
ACGUAGCAAUAUUACGCGCC | -1.23 ± 0.19 | -0.895 ± 0.25
ACGUAGCAAUAUUACGCUCG | -2.16 ± 0.12 | -0.0752 ± 0.15
ACGUAGCAAUAUUACGGAGG | -4.05 ± 0.28 | -2.53 ± 0.19
ACGUAGCAAUAUUACGGCAC |  | -1.73 ± 0.42
ACGUAGCAAUAUUACGGCGA | 0.0177 ± 0.1 | 0.229 ± 0.12
ACGUAGCAAUAUUACGGCGU | -3.88 ± 0.14 | -2.48 ± 0.15
ACGUAGCAAUAUUACGUAUA | -3.36 ± 0.33 | -2.1 ± 0.2
ACGUAGCAAUAUUACGUCUG | -2.47 ± 0.16 | -2.71 ± 0.19
ACGUAGCAAUAUUACGUGUG | -3.26 ± 0.14 | -3.01 ± 0.16
ACGUAGCAAUAUUACGUUCC | -3.29 ± 0.24 | -2.04 ± 0.23
ACUAAGCAAUAUUACGACCC | -1.08 ± 0.25 | -0.275 ± 0.32
ACUAAGCAAUAUUACGACCG | -0.45 ± 0.17 | 0.0545 ± 0.21

Sequence | self-splicing fitness (ln) (30 °C) | self-splicing fitness (ln) (37 °C)
ACUAAGCAAUAUUACGACUA | -1.52 ± 0.14 | -0.721 ± 0.14
ACUAAGCAAUAUUACGAGAA | -2.46 ± 0.28 | -2.37 ± 0.26
ACUAAGCAAUAUUACGAGCA | -1.29 ± 0.086 | -0.197 ± 0.098
ACUAAGCAAUAUUACGAGGG | -2.55 ± 0.17 | -2.31 ± 0.24
ACUAAGCAAUAUUACGCCAA | -2.24 ± 0.12 | -2.26 ± 0.16
ACUAAGCAAUAUUACGCCGU | -1.86 ± 0.2 | -1.64 ± 0.18
ACUAAGCAAUAUUACGCUUC | -1.69 ± 0.17 | -0.717 ± 0.14
ACUAAGCAAUAUUACGGACG | -0.961 ± 0.087 | -0.106 ± 0.14
ACUAAGCAAUAUUACGGAGC | -2.87 ± 0.17 | -0.628 ± 0.14
ACUAAGCAAUAUUACGGCAA | -0.655 ± 0.089 | -0.133 ± 0.1
ACUAAGCAAUAUUACGGCUU | -2.2 ± 0.1 | -1.27 ± 0.12
ACUAAGCAAUAUUACGGGCA | -1.27 ± 0.089 | -0.405 ± 0.1
ACUAAGCAAUAUUACGGUUC | -3.92 ± 0.2 | -1.42 ± 0.13
ACUAAGCAAUAUUACGUAGU | -3.04 ± 0.14 | -3.45 ± 0.21
ACUAAGCAAUAUUACGUCUG | -1.37 ± 0.084 | -0.847 ± 0.1
ACUCAGCAAUAUUACGAAAG | -1.78 ± 0.12 | -1.42 ± 0.15
ACUCAGCAAUAUUACGAACU | -0.166 ± 0.053 | 0.599 ± 0.066
ACUCAGCAAUAUUACGAAGA | -0.868 ± 0.1 | -0.958 ± 0.11
ACUCAGCAAUAUUACGACCU | -0.248 ± 0.12 | 0.216 ± 0.13
ACUCAGCAAUAUUACGAGUC | -5.21 ± 0.29 | -2.97 ± 0.2
ACUCAGCAAUAUUACGAUAG | -4.03 ± 0.24 | -2.21 ± 0.17
ACUCAGCAAUAUUACGCCGC | -2.78 ± 0.28 | -1.78 ± 0.43
